Source: US8198236B2, “Methods and compositions for the treatment of cancer” (Washington University, priority 2007, dated 2012)

Key:
[1] = test system: cytosolic β-catenin; test: Cytosolic β-catenin level by western blotting in LRP6-transduced HT1080 cells; assay type: cell-based, human; conditions: 0.5 to 5 nM Mesd, 2 hours at 37° C.
Description: […] After washing in ice-cold PBS, cells were collected and homogenized in a glass Dounce homogenizer in buffer consisting of 100 mM Tris-HCl pH 7.4, 140 mM NaCl, 2 mM DTT, 2 mM PMSF, and 1× Complete™ protease inhibitors (500 μl/well). The homogenate was centrifuged for 10 minutes at 500 g, and the supernatant was further centrifuged at 100,000 g at 4° C. for 90 minutes. The resulting supernatant was designated the cytosolic fraction. The β-catenin levels were then examined by western blotting using β-catenin-specific antibody from Cell Signaling Technology. The immunoreactive proteins were detected using the ECL™ system (Amersham). Films showing immunoreactive bands were scanned with a Kodak Digital Science DC 120 Zoom Digital Camera and band intensities were analyzed with Kodak Digital Science1D Image Analysis Software.
β-catenin is a key molecule in the Wnt/β-catenin signaling pathway. A cytosolic pool of β-catenin interacts with DNA-binding proteins and participates in Wnt signal transduction (Hinck, L., J. Cell Biol. 125: 1327-1340, 1994; Gottardi, C. J., J. Cell Biol. 153: 1049-1060, 2001; Klingelhofer, J., et al., Oncogene 22: 1181-1188, 2003). To determine whether Mesd binding to cell surface LRP6 directly regulates Wnt signaling, we studied the effects of Mesd binding on cytosolic β-catenin levels in HT1080-LRP6 cells. […]

[2] = molecular target: LRP5 (Homo sapiens, UniProt O75197); test: 125I-DKK1 binding to LRP5; conditions: FIG. 10B
Description: In order to investigate the binding of Mesd polypeptide and an Mesd oligopeptide to either LRP5 or LRP6, binding assays were performed using ^125I-Mesd or ^125I-DKK1 (FIG. 10).

[3] = test system: HCC1187 cells; test: MTT assay of Wnt3a CM-stimulated growth of HCC1187 cells; assay type: cell-based, human; conditions: Mesd 1 μM, 24 h
Description: Cell growth and cell proliferation were measured by MTT assay (Promega) and BrdU incorporation using the BrdU ELISA kit (Roche Molecular Systems) according to the manufacturers' instructions. […] Breast cancer cells expressing control or LRP6 shRNA were seeded into 48-well plates. MTT-labeling reagent was added to each well 24 h later, and plates were incubated at 37° C. for 4 h. After the incubation period, the formazan crystals were dissolved in an MTT solubilization reagent and the resulting color was quantified spectrophotometrically. In some experiments, cell proliferation was measured by BrdU incorporation using the BrdU ELISA kit (Roche Molecular Systems) according to the manufacturer's instructions. Briefly, cancer cells expressing control or LRP6 shRNA were plated on 96-well plate. Cells were incubated with BrdU for 24 h, and the newly synthesized BrdU-DNA was then determined by colorimetry using an ELISA reader. All experiments were performed three times in triplicate.
In FIG. 20, * indicates p<0.05 compared to L cell CM; ** indicates p<0.01 compared to L cell CM.

[4] = test system: MMTV-Wnt1 tumors; test: MMTV-Wnt1 tumor transplant growth in nude mice; assay type: in vivo; conditions: i.p. every other day, first dose 15 mg/kg then 10 mg/kg, three weeks
Description: Recombinant Mesd protein was prepared as described (Li Y, et al. (2005) J Cell Sci 118(22): 5305-5314). Mesd peptide, […] (SEQ ID NO: 14), was manufactured by Abgent (San Diego). Female athymic nude mice (Taconic) (6-8 weeks old) were used for passaging tumors from MMTV-Wnt1 mice (Taconic). MMTV-Wnt1 tumors were serially passaged in mice by implantation in the mammary fat pad as described (DeAlmeida V, et al. (2007) Cancer Res 67, 5371-5379). Therapeutic agents (200 μL Mesd protein, Mesd peptide or PBS) were administrated i.p. with a first dose of 15 mg/kg, followed by 10 mg/kg (9 more doses). Three groups of mice were treated every other day for three weeks and tumor volumes were measured thrice weekly.
The pharmacokinetics and bioavailability of Mesd and Mesd peptide ([…] (SEQ ID NO: 14)) were first investigated (FIG. 23). Cells from MMTV-Wnt1 tumors were injected into the mammary fat pads of female nude mice, and the resultant mice were subsequently randomly grouped when the mean tumor volume reached ca. 200 mm^3. […]
In these experiments, mice bearing established MMTV-Wnt1 tumor transplants were divided into three groups (five animals per group) and were i.p. injected with PBS (vehicle), Mesd, or Mesd peptide every other day. Tumor volume was analyzed using caliper measurement. […]

[5] = Pharmacokinetics of 125I-labeled Mesd or Mesd peptide, intravenous or subcutaneous
Description: In experiments shown in FIG. 23, pharmacokinetics of Mesd peptide and Mesd were examined. FIG. 23A: Amount of Mesd in serum following a single dose of protein administration. Mice were dosed at 5, 10, 20 mg/kg of Mesd via i.p. and the serum samples were collected from individual mice at the indicated time points. The levels of Mesd in serum were quantified by comparison to Mesd pure protein with known concentrations in Western blot analysis. Values are the average of triple determinations with S.D. indicated by error bars. […] Samples were obtained by terminal bleed under anesthesia at each of the indicated time points (N=3 animals per time point). Radioactivity was measured using a gamma counter and DPM converted to mass units/mL blood using the specific activity (DPM/mass) of each test substance. Data are plotted as mass U/mL of test substance with standard deviation indicated by error bars.

Chain of LRP5 (O75197 32-1615): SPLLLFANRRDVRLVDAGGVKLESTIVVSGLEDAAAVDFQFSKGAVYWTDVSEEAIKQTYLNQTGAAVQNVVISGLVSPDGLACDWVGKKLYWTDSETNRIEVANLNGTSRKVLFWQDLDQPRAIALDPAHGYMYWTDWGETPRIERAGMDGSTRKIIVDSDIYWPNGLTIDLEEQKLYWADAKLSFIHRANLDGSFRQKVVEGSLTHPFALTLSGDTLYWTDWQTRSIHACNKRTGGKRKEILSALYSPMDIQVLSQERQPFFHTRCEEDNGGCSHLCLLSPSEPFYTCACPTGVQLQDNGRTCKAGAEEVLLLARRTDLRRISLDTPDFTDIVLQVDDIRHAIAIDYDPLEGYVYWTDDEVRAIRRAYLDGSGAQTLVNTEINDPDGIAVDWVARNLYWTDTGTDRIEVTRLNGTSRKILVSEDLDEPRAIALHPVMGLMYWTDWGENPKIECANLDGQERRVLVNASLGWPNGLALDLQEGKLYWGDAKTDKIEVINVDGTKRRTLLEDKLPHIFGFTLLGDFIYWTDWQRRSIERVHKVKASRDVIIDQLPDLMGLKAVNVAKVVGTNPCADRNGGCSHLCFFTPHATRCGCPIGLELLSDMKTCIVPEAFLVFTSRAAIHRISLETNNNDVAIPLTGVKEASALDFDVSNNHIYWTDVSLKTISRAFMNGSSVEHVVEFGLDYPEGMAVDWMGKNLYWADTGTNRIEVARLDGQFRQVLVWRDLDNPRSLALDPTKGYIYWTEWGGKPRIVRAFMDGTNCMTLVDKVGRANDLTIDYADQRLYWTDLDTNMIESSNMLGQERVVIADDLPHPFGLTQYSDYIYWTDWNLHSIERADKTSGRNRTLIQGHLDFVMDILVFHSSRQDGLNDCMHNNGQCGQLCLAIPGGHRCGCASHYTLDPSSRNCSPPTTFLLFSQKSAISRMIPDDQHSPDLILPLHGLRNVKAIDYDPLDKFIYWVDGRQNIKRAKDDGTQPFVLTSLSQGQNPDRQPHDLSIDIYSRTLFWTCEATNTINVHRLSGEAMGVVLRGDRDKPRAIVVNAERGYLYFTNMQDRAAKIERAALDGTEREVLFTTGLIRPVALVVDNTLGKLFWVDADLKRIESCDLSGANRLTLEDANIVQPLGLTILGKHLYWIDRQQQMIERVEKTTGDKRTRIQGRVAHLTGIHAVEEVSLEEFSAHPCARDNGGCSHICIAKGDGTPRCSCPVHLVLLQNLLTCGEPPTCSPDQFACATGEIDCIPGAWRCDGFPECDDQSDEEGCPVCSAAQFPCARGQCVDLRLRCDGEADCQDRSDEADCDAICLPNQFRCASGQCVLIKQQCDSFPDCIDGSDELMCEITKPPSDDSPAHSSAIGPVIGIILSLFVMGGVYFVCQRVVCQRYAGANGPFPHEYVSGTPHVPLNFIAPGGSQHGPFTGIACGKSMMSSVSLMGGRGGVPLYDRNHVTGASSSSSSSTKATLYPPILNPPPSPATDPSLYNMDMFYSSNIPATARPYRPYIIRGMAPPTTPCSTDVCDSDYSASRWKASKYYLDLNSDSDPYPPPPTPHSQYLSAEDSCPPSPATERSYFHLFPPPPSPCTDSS

B1: Mesd: Recombinant full-length mouse Mesd expressed in E. coli, N-terminal polyhistidine tail, lacking the signal peptide (protein)
chain: ADTPGEATPPPRKKKDIRDYNDADMARLLEQWEKDDDIEEGDLPEHKRPSAPIDFSKLDPGKPESILKMTKKGKTLMMFVTVSGNPTEKETEEITSLWQGSLFNANYDVQRFIVGSDRAIFMLRDGSYAWEIKDFLVSQDRCAEVTLEGQMYPGKGGGSKEKNKTKPEKAKKKEGDRKPRASKEDNRAGSRREDL
modifications: left off: small tags and cut ends
notes: Recombinant full-length mouse Mesd expressed in E. coli, N-terminal polyhistidine tail, lacking the signal peptide
In the case of B1, the “Change in cytosolic β-catenin levels” value [1] is reported as “no significant change”, the “Reduction in binding of 125I-DKK1 to LRP5” value [2] is reported as “small but significant reduction” and the “Effect on Wnt3a CM-increased cell growth” value [3] is reported as “abolished”. For the same molecule, the “Tumor growth (tumor volume, caliper)” value [4] was “significantly inhibit tumor growth”, the Bioavailability ([5]; intravenous (tail vein) or subcutaneous) was 60% and the Distribution into tissues ([5]; thyroid/parathyroid, liver, kidney, stomach, gastrointestinal tract) was “rapid and widespread”.
